Source: publication PMC3973318
Read-outs that look alike come from different tables or passages of the source.

Experiments:
Test in all cases: EMSA
DRH-3 [1] = target: T1, DRH-3 (Caenorhabditis elegans, UniProt Q93413 1-1119)
T1 sequence: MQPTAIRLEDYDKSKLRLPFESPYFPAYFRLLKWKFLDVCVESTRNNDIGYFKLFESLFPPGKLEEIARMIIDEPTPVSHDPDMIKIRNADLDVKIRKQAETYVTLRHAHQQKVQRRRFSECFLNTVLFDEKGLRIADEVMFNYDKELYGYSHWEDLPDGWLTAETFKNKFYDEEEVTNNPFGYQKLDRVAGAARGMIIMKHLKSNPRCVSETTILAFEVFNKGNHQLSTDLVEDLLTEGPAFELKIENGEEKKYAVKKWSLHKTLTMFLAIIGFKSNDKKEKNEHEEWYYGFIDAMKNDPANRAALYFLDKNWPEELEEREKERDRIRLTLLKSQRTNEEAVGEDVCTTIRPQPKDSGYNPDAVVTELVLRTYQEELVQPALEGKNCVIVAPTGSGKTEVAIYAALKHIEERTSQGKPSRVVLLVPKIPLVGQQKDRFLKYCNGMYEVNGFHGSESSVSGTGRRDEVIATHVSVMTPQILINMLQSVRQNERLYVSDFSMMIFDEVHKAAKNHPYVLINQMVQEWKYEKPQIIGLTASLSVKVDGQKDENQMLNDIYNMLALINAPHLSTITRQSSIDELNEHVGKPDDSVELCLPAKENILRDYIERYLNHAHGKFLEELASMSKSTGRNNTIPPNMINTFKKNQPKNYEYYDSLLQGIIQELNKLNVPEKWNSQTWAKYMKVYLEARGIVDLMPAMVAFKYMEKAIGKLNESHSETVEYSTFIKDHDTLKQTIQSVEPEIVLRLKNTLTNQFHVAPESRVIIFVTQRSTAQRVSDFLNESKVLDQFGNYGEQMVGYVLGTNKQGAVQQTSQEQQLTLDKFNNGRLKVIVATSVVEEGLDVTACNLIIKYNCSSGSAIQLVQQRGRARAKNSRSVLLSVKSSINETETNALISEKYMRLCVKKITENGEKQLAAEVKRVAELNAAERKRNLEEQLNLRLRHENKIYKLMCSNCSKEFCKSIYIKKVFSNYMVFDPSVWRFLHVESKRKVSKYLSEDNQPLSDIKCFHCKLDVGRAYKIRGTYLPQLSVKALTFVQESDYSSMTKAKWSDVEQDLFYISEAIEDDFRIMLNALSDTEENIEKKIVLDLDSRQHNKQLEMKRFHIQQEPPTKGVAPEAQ

DRH-3 [2] = target: T1, DRH-3; remark: listed apart in the source
ΔN-DRH3 [3] = target: T2, ΔN-DRH3 (Caenorhabditis elegans, UniProt Q93413 300-1119)
T2 sequence: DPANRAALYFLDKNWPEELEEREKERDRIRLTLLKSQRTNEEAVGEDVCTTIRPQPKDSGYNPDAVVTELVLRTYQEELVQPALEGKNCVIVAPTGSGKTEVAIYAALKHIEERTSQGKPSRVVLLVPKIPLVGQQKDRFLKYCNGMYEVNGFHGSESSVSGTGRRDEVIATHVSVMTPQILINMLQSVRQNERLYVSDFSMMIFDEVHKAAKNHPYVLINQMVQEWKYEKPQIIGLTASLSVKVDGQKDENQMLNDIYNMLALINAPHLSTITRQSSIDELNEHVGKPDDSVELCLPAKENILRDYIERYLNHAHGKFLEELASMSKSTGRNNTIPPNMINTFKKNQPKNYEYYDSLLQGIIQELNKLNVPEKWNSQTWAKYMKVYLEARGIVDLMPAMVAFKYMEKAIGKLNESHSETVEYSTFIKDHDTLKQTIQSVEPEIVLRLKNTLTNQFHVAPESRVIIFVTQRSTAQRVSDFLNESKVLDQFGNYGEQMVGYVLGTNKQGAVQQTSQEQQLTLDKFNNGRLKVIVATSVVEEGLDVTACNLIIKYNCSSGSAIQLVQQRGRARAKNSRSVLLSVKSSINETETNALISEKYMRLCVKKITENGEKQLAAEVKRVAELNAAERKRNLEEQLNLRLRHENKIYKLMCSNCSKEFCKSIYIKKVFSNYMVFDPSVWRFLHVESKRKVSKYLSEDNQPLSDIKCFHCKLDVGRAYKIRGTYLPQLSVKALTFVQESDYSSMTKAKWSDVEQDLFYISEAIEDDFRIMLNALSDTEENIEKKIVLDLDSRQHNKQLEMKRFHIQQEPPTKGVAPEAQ

DRH-3 [4] = target: T1, DRH-3; remark: listed apart in the source
ΔN-DRH3 [5] = target: T2, ΔN-DRH3; remark: listed apart in the source
MDA-5 = target: T3, MDA-5 (human, UniProt Q9BYX4 1-1025)
T3 sequence: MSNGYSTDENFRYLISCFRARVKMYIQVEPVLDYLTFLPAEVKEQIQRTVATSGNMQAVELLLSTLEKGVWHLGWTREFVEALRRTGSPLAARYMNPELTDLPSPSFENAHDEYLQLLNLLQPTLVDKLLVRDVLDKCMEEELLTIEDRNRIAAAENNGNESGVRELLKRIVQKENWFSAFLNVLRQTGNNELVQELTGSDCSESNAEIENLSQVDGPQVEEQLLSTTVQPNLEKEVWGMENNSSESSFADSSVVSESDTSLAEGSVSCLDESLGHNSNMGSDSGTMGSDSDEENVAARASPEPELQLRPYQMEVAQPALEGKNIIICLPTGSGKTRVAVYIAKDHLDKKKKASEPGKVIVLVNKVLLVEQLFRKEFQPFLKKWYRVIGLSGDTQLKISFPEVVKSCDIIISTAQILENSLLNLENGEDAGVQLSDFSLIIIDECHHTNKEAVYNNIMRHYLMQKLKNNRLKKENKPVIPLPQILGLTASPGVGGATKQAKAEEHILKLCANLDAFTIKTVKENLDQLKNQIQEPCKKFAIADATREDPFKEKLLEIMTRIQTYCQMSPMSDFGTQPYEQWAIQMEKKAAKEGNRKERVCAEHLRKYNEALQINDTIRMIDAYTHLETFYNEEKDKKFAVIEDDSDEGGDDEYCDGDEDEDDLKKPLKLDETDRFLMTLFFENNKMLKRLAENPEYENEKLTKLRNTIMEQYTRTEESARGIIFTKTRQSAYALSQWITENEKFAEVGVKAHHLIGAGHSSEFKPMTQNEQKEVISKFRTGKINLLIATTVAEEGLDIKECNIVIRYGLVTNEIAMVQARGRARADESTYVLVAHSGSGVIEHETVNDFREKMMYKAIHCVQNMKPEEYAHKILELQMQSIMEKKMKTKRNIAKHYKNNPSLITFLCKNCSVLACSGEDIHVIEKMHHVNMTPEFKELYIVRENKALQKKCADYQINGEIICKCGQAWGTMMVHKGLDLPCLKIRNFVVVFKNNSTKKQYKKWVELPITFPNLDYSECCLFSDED

RIG-I = target: T4, RIG-I (UniProt O95786 1-925)
T4 sequence: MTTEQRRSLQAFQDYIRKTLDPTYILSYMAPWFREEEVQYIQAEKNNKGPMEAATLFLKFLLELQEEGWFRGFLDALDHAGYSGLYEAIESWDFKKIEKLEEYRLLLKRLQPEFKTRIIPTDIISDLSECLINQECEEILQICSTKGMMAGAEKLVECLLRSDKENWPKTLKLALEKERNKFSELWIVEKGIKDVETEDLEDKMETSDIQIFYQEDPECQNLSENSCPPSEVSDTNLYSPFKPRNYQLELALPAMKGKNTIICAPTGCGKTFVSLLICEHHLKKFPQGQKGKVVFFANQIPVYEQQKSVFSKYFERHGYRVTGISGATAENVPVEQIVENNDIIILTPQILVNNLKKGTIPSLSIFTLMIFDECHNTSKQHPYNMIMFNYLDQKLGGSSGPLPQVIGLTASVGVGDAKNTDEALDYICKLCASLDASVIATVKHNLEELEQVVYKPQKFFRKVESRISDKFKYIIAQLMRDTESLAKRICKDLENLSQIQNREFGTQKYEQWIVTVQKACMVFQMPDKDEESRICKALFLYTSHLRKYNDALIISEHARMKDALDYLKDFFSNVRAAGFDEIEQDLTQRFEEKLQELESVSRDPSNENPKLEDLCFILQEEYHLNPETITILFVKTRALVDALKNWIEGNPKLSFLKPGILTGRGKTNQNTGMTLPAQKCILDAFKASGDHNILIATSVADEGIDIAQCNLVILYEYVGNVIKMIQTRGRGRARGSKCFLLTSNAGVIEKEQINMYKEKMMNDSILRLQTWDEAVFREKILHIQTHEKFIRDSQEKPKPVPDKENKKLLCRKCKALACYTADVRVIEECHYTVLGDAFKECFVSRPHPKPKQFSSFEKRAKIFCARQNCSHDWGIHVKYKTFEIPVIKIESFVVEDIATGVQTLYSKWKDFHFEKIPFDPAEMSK

ΔN-DRH3 [6] = target: T2, ΔN-DRH3; remark: listed apart in the source
ΔN-DRH3 [7] = target: T2, ΔN-DRH3; remark: listed apart in the source

B1: ds22 (dsRNA)
RNA 1: GGGUACAGACUGACUAGGAUCG
RNA 2: CGAUCCUAGUCAGUCUGUACCC
B1 gave a Kd (DRH-3 [1]) of 230 ± 7 nM.

B2: ds12 (dsRNA)
RNA 1: GCCCAGACCACC
RNA 2: GGUGGUCUGGGC
B2 was tested, and the Kd (DRH-3 [2]) was 839 ± 53 nM and the Kd (ΔN-DRH3 [3]) was 522 ± 67 nM.

B3: ds25 (dsRNA)
RNA 1: GGGUAUAGACUGACUAGGAUCUCCC
RNA 2: GGGAGAUCCUAGUCAGUCUAUACCC
B3 gave a Kd (DRH-3 [4]) of 218 ± 7 nM, a Kd (ΔN-DRH3 [5]) of 376 ± 5 nM and a Kd (MDA-5) of 123 ± 4 nM. The Kd (RIG-I) was 38 ± 6 nM.

B4: ds18 (dsRNA)
RNA 1: GGGUAUAGACUGACUAGG
RNA 2: CCUAGUCAGUCUAUACCC
With B4 the Kd (DRH-3 [2]) was 679 ± 135 nM.

B5: dsPPP12 (dsRNA)
RNA 1: GCCCAGACCACC
RNA 2: GGUGGUCUGGGC
modifications: 5' triphosphate on top strand
B5 gave a Kd (ΔN-DRH3 [6]) of 174 ± 12 nM.

B6: dsPPP25 (dsRNA)
RNA 1: GGGUAUAGACUGACUAGGAUCUCCC
RNA 2: GGGAGAUCCUAGUCAGUCUAUACCC
modifications: 5' triphosphate on top strand
In the case of B6, the Kd (ΔN-DRH3 [7]) is reported as 120 ± 6 nM.

B7: ds34 (dsRNA)
RNA 1: GGAGUGCAUCUCCUUCCCUCCUUUCCUUCUGGUC
RNA 2: GACCAGAAGGAAAGGAGGGAAGGAGAUGCACUCC
With B7 the Kd (DRH-3 [4]) was 384 ± 19 nM.
